Source: the supplement of paper PMC9170038

Test system: MS2 coat protein
Test: apparent KD of MS2 coat protein; designed switch direction (-1 OFF switch, 1 ON switch): -1; higher = weaker reporter binding
Summary of the method: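 RNA switches sharing common flanks were transcribed by stalled E. coli RNA polymerase on Illumina chips. A doubling series of SNAP-549-labelled MS2 coat protein, from 0.7 or 1.5 nM to 3 µM, was applied in Tris-HCl pH 7.5 buffer with KCl, MgCl2, BSA, DTT, tRNA and Tween-20. Each step lasted 0.8–1.5 h at the bottom of the series and 10–20 min at the top. Normalised cluster fluorescence was curve-fitted, giving apparent KD as the per-design median over clusters.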

[1] = input ligand: microRNA oligo, concentration not stated
[2] = Eterna round: R95, input ligand: FMN 200 uM
[3] = Eterna round: R95, input ligand: microRNA oligo, concentration not stated
[4] = Eterna round: R95, input ligand: none

Sequence	apparent KD of MS2 coat protein (input ligand: FMN 200 uM)	apparent KD of MS2 coat protein (input ligand: none)	apparent KD of MS2 coat protein [1]	apparent KD of MS2 coat protein [2]	apparent KD of MS2 coat protein [3]	apparent KD of MS2 coat protein [4]
AGUAUCUGAGGAUAUUGAGUUAUCUACAUGAGGAUCACCCAUGUUGUAUGUGUAGAAGCACGAGAAGGCAGAUACA [Eternabot (L2) Solution 1] (Eterna round: R97, puzzle: Exclusion 5)	395 nM	102 nM				
GGUGGGCUAGGAUAUGCUUUGGGAAAGCAUUCCUUCGAUAAACUUGAGGAUCACCCAAGUAGAAGGAGCUUGCC [salish99_ex2_r4_020] (Eterna round: R97, puzzle: Exclusion 2)	16.4 nM	13.4 nM				
UAUAUAUAGUAAGGAUAUGUAUUUAAUUUAUAAACAGAAGGUACUGACAUGAGGAUCACCCAUGUUUUAGUGUGGGCAUGUAGA [JMF's solution 13] (Eterna round: R96, puzzle: Exclusion NG 1)			80.8 nM			
GACCGGACGUGGUCAGGUAACAUGAGGAUCACCCAUGUAGGUCUAGGAACAAGCUUUUUGAAAGCUCGUCUUAUAAA [JR_SV3TOV1_Sub058] (puzzle: Sensor v3, turn-off variant 1)				56.7 nM	33.6 nM	69.3 nM
CUGUACUGAGGAUAUACAUGAGGAUCACCCAUGUGUUCCAGCUAGGAAACUAGCAAAUGUAGAAGGCAGUACAG [Mat - Exclusion 3 - Eli Mod - D50] (Eterna round: R97, puzzle: Exclusion 3)	307 nM	342 nM				
UAUUAACAAGCGAGAUCCCACAUGAGGAUCACCCAUGUGCUCGUCUUAUAAGGUACUGUGACGAUAGUCACGGUACC [Mat - Sensor, turn-off var - Eli Mod - D3] (Eterna round: R97, puzzle: Sensor, turn-off variant 1)	14.5 nM	13.8 nM				
UUAAUGUGAGGAUAUCAGGUGUGCUAGCGUACUGGUACAUCUGAGAAGGCACAUGAGGAUCACCCAUGUUCCUU [JL-ex4-3.27 Brourd mod] (Eterna round: R96, puzzle: Exclusion 4)	59.4 nM	20.6 nM	15.9 nM			
CAGUACUGAGGAUAUACAUGAGGAUCACCCAUGUAUCCUAGCUAGGAAACUAGCAAAUGUAGAAGGCAGUACUG [Ex3: 818] (Eterna round: R96, puzzle: Exclusion 3)	747 nM	61.2 nM	53.8 nM			
GCUUGUGGGCAAGGAUAUCCUACGUUGUUCUGGUUCGUGUCUGUCACAUGAGGAUCACCCAUGUGGGAGAAGGUGCAUUUGGGU [Design 59] (Eterna round: R96, puzzle: Exclusion NG 2)	17.9 nM	18 nM	13.8 nM			
AGUCCUGAAGUUAGGAUAUGAAGUAUCACUGCACUUCAGAAGGGACUUGAGGAUCACCCAAGUAGCCGUGAGGG [salish99_bmod_ex4_r4_002] (Eterna round: R97, puzzle: Brourd's mod of Exclusion 4)	128 nM	70.6 nM				
AAAGCAAAGACAGGAUAUCGACCCAGUGAUUUUCGUGCCGGAAACAUGAGGAUCACCCAUGUGUACGAGAAGGGUCAAAACAAC [Uslebeteat] (Eterna round: R96, puzzle: Exclusion NG 2)	61.9 nM	22.3 nM	17.1 nM			
AGACAGUCAGGAUAUACAUGAGGAUCACCCAUGUUGAGAUGAGAAAGGGCAGGAAGAGGUAGAAGGGACAAGAG [JR_Exclu3_Sub036] (puzzle: Exclusion 3)				25 nM	20.8 nM	24.8 nM
AGUCUGCGAGGAUAUACAUGAGGAUCACCCAUGUGCGAGAUACUAGUGAGGUCGAUUGGUAGAAGGCGCGGACG [Mat - Exclusion 3 - Mod of JL D85] (puzzle: Exclusion 3)				86.4 nM	93.1 nM	67 nM
UUAAUUAAUUAAGGCUGAAGAUCACAUGAGGAUCACCCAUGUAAGGAUAUCAGCUCGAUUAGAGCUGAGAAGGUACAUGCAGCC [ExNG3/18-B1] (Eterna round: R96, puzzle: Exclusion NG 3)	53.9 nM	319 nM	377 nM			
UCACGGGACUGAGGAUAUACAUGAAUUAUUUUUGUAGAAGGCAGAAUGUUAGUUUAUUCACUAUACAUGAGGAUCACCCAUGUU [JR_ExcNG1_Sub021] (Eterna round: R96, puzzle: Exclusion NG 1)	21.5 nM	32.9 nM	26.7 nM			
AGAUGGCGAGGAUAUACAUGAGGAUCACCCAUGUGAGAUAAGAAAGUGAGGAAGAAAAGUAGAAGGCGCUGUCA [Mat - Exclusion 3 - Mod of Salish D12] (puzzle: Exclusion 3)				281 nM	58.6 nM	58.4 nM

Sequence	apparent KD of MS2 coat protein (input ligand: FMN 200 uM)	apparent KD of MS2 coat protein (input ligand: none)	apparent KD of MS2 coat protein [1]	apparent KD of MS2 coat protein [2]	apparent KD of MS2 coat protein [3]	apparent KD of MS2 coat protein [4]
ACUUAUUGAGGAUAUACAGAAAAUUACAUGAGGAUCACCCAUGUUCUUCAAUGUAUAUAUGUAGAAGGCAGAAUAU [Mat - Exclusion 5 - JL Mod - D19] (Eterna round: R97, puzzle: Exclusion 5)	31.1 nM	16.5 nM				
GCUUGUCGAGGAUAUGCAUACACUGGAUACAGUGGAAGGUCACAUGAGGAUCACCCAUGUAGAAGGCGACGAGC [EX2 #39] (Eterna round: R97, puzzle: Exclusion 2)	121 nM	41.8 nM				
UUUAAACAUGAGGAUCACCCAUGUAAGGAUAUACGAAUGCAGACACACACGGAUGCAAGUAGAAGGUACAAUGC [Design #9] (Eterna round: R97, puzzle: Exclusion 1)	37.6 nM	42.6 nM				
AGGUCCUUCUGGAGACAUGAGGAUCACCCAUGUCGGGUCAGCGAGGAUAUCGGUCAAUAAUGUGACGAGAAGGCGCGGACCGAU [Ex NG3 #57] (Eterna round: R96, puzzle: Exclusion NG 3)	55.5 nM	19.9 nM	17.1 nM			
UUUAAUUUUUUUUUUUUACAAGCUUUUUGCUCGUCUUAUACAUGAGGAUCACCCAUGUGGGUAGAGGGUAAAUUAUC [JMF 82] (puzzle: Sensor v3, turn-off variant 2)				15.1 nM	38.9 nM	14.9 nM
AGAGUGCUGCGAGGAUAUACAUGAGGAUCACCCAUGUAAAAGUGUGAGGCUUUGCCUCACACGAAGUAGAAGGCGCAGUACUCA [Mat - Exclusion NG 2 - Mod of JL - D33] (Eterna round: R96, puzzle: Exclusion NG 2)	13 nM	24.3 nM	11.3 nM			
AACCUGAGGCUUUGCUUUAGGUGUACAUGAGGAUCACCCAUGUAGGAUAUGGUAGGCUUUGCUUACCAGAAGGACAUUAUGAUU [JL ENG3 1.18] (Eterna round: R96, puzzle: Exclusion NG 3)	119 nM	37.1 nM	33.4 nM			
UACACCGCAUGAGGAUCAAACAUGAGGAUCACCCAUGUAUAGCAAGCUUUUUGCUCGUCUUAUAAAUAUGUGGUGUA [Electric Eye 8 - Jieux - Sensor, turn-off variant 1] (Eterna round: R97, puzzle: Sensor, turn-off variant 1)	16.6 nM	15.5 nM				
UUUAGUUGGUAAGGAUAUCCUACAUUGUUCUGGCCCGGGCAUGCUACAUGAGGAUCACCCAUGUGGGAGAAGGUGCGUCAUCGC [Design 19] (Eterna round: R96, puzzle: Exclusion NG 2)	51.4 nM	47.9 nM	39.4 nM			
CUAGCUUCGGCUAGUACAAGCUUUUUGCUCGUCUUAUUAACAUGAGGAUCACCCAUGUUAAUGAGACCUCAUGUAUU [Sensor v3 - turn-off variant 2 - 9] (Eterna round: R96, puzzle: Sensor v3, turn-off variant 2)	11.5 nM	13.6 nM	12.2 nM			
CUAACAUGCUGGUGAUCAUACAUGAGGAUCACCCAUGUAACAAGCUUUUUGUUCGUCUUAUAAGAUUACUAGUAUGU [Stov1/10-B3] (Eterna round: R97, puzzle: Sensor, turn-off variant 1)	38.8 nM	52.3 nM				
CACGUGUCAGGAUAUCCCGCGCGCGCUUCACCGAGAGUGCGGGAGAAGGGACAUGAGGAUCACCCAUGUCCUUC [Eternabot (L1) Solution 93] (Eterna round: R97, puzzle: Exclusion 4)	12.8 nM	16.2 nM				
GUAAGAUCCGUCAGGAUAUAUGCCCAAGGAGGGACGUAGAAGGGACAUGAGGAUCACCCAUGUACCUCAAGGAU [Eternabot (L1) Solution 97] (Eterna round: R97, puzzle: Brourd's mod of Exclusion 4)	17.6 nM	16.1 nM				
UUCACAUGGACAUGAGAUCACAUGAGGAUCACCCAUGUGAAUAACAAGCUUUUUGUUCGUCUUAUGUCCAAUAAUAU [Stov1/14-D2] (Eterna round: R97, puzzle: Sensor, turn-off variant 1)	13.7 nM	10.5 nM				
CGAUGUCUUCGGACAUCGAACAUGAGGAUCACCCAUGUAUAGAGCAGAUCUUCAUGCAAGCUUUUUGCUCGUCUUAU [Sensor v3 - turn-off variant 1 - 47] (puzzle: Sensor v3, turn-off variant 1)				84.7 nM	14.6 nM	90.4 nM
AAGGUACAUGAGGAUCACCCAUGUGAGGAUAUCGUUGUUGAGUCUAGAGAUACAAUGUUGAGAAGGUACGGGUA [Eternabot (L2) Solution 94] (Eterna round: R97, puzzle: Exclusion 1)	63.1 nM	61.2 nM				
